Data on one molecule can be found in paper PMC9082959, “Mechanism of Assembly of the Non-Covalent Spectrin Tetramerization Domain from Intrinsically Disordered Partners” (Journal of molecular biology, 2013).

Conditions in all cases: both partners purified
In one test the target is T1, β16β17 D39G (human, UniProt P11277 1898-2083, D2042G).
T1 construct: erythrocyte β-spectrin, human, residues 1898-2083 (β16β17); mutant of m2; also called D2042G; source: E. coli C41(DE3), purified (Ni2+ agarose, thrombin cleavage, gel filtration)
T1 sequence (looked up): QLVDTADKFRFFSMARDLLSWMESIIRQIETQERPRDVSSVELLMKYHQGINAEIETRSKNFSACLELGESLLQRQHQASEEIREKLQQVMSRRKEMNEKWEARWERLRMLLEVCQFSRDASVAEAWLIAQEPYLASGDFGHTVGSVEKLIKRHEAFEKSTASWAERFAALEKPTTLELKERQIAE
The test can be described thus: ITC; β16β17 at 25–50 μM in the cell titrated with 15–20 injections to 2–2.5 eq of α0α1; one-site binding model; PBS (50 mM sodium phosphate, 150 mM NaCl, pH 7.04), 25 °C; mutants only against the wild-type partner.

The next test concerns the target T2, β16β17 D39A (human, UniProt P11277 1898-2083, D2042A).
T2 construct: erythrocyte β-spectrin, human, residues 1898-2083 (β16β17); mutant of m2; also called D2042A; source: E. coli C41(DE3), purified (Ni2+ agarose, thrombin cleavage, gel filtration)
T2 sequence (looked up): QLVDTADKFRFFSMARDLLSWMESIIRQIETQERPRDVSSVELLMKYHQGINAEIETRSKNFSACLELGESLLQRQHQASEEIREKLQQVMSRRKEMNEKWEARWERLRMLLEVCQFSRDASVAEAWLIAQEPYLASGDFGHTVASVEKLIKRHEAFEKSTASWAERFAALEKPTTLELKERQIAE
The test is described as above.

Another test addresses T3, β16β17 K46G (human, UniProt P11277 1898-2083, K2049G).
T3 construct: erythrocyte β-spectrin, human, residues 1898-2083 (β16β17); mutant of m2; also called K2049G; source: E. coli C41(DE3), purified (Ni2+ agarose, thrombin cleavage, gel filtration)
T3 sequence (looked up): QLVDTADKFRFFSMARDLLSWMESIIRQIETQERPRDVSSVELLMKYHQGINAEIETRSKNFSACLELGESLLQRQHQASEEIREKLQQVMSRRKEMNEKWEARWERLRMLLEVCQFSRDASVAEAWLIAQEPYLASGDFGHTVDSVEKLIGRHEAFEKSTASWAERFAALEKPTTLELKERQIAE
Described as above.

Another test addresses T4, β16β17 A24G (human, UniProt P11277 1898-2083, A2027G).
T4 construct: erythrocyte β-spectrin, human, residues 1898-2083 (β16β17); mutant of m2; also called A2027G; source: E. coli C41(DE3), purified (Ni2+ agarose, thrombin cleavage, gel filtration)
T4 sequence (looked up): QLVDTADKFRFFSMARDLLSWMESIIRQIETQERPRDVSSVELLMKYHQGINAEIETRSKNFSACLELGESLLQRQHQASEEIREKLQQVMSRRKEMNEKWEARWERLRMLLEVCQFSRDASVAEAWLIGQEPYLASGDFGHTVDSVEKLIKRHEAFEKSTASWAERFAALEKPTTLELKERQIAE
Described as above.

The next test addresses T5, β16β17 K67G (human, UniProt P11277 1898-2083, K2070G).
T5 construct: erythrocyte β-spectrin, human, residues 1898-2083 (β16β17); mutant of m2; also called K2070G; source: E. coli C41(DE3), purified (Ni2+ agarose, thrombin cleavage, gel filtration)
T5 sequence (looked up): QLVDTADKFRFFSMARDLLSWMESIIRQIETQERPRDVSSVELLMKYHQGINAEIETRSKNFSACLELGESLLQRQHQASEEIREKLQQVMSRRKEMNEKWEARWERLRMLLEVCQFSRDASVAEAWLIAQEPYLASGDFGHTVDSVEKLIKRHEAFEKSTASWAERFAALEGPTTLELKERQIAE
Described as above.

In test [1] the target is T6, β16β17 (erythrocyte β-spectrin residues 1898–2083), wild type (human, UniProt P11277 1898-2083).
T6 construct: erythrocyte β-spectrin, human, residues 1898-2083 (β16 plus the incomplete 17th domain); synthetic gene (GenScript) in a modified pRSETA plasmid; source: E. coli C41(DE3), purified (Ni2+ agarose, thrombin cleavage, gel filtration)
T6 sequence (looked up): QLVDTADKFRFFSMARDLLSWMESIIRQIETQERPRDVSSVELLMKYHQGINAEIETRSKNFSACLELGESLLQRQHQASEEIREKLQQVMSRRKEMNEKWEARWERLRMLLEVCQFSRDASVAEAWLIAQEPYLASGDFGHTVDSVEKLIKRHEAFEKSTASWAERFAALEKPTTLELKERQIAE
Put plainly: stopped-flow intrinsic tryptophan fluorescence (dissociation/unfolding kinetics); wild type; observed rate constants for tetramer dissociation calculated from folding and unfolding experiments in urea; k− in water with mk− 1.44 M^-1; PBS, 25 °C.

One may read the koff as the first-order rate constant of dissociation.

B1: α0α1 (erythrocyte α-spectrin residues 2–163), wild type (domain or fragment, human, UniProt P02549 2-163, looked up)
chain: EQFPKETVVESSGPKVLETAEEIQERRQEVLTRYQSFKERVAERGQKLEDSYHLQVFKRDADDLGKWIMEKVNILTDKSYEDPTNIQGKYQKHQSLEAEVQTKSRLMSELEKTREERFTMGHSAHEETKAHIEELRHLWDLLLELTLEKGDQLLRALKFQQY
notes: synthetic gene (GenScript) in a modified pRSETA plasmid; also called α1α0; source: E. coli C41(DE3), purified (Ni2+ agarose, thrombin cleavage, gel filtration)
Consider B1, for which the Ka was 280000 M⁻¹ with β16β17 D39G; 470000 M⁻¹ with β16β17 D39A; 230000 M⁻¹ with β16β17 K46G; 242000 M⁻¹ in the test with β16β17 A24G; 140000 M⁻¹ with β16β17 K67G. For the same molecule, the koff in test [1] is 0.00025 s⁻¹.
